This is an account of results in patent US20140004128A1.

The target in this assay is recombinant human IL-18 (human) (UniProt Q14116). The assay can be described thus: free IL-18 ECL immunoassay: recombinant human IL-18 captured by plate-coated Antibody 12GL, biotinylated detection antibody; rhIL-18BP titrated as competitor of the capture.

Take “recombinant IL-18BP (from UniProt O95998 31-194)”: the IC50 (read off the curve) came out at 3 ng/mL.
